Data: paper PMC10673611 (Molecules, 2023)

B1: durvalumab-based anti-hPD-L1 IgG4 antibody C5 (antibody, V domains shown)
VH: EVQLVESGGGLVQPGGSLRLSCAASGFTFSRYWMSWVRQAPGKGLEWVALISRDGSETYYVDSVKGRFTISRDNAKNSLYLQMNSLRAEDTAVYYCAREGGWFGELAFDYWGQGTLVTVSS
VL: IVLTQSPGTLSLSPGERATLSCKASEDIGTWLAWYQQKPGQAPRLLIYDASSRATGIPDRFSGSGSGTDFTLTISRLEPEDFAVYYCQQYGSLPWTFGQGTKVEIK
notes: IgG4 heavy chain; IgG4; recombinant human anti-PD-L1 antibody, previously modeled, durvalumab-based; also called C5 antibody; full C5 antibody; source: produced by Recepton, purified (MabSelect Sure, SEC); copies: 2 + 2
B2: C5M1A, asymmetric knob-into-hole C5 IgG4 with one of the Fabs replaced by M1 (bispecific antibody, V domains shown)
VH: B1 VH
VL: B1 VL
notes: it replaces one Fab; human IgG4 constant region, hinge and Fc as in the heavy chain of m7, with knob-into-hole mutations; copies: 1 + 1 + 1
B3: C5M1B, C5 scFv with M1 attached to its C-terminus by a (GGGGS)4 linker (bispecific antibody, V domains shown)
VH: B1 VH
VL: B1 VL
notes: linker printed as (GGGGS)4

biological target: T1, programmed death ligand 1 (PD-L1) (Homo sapiens, UniProt Q9NZQ7); experiment: ELISA; indirect ELISA; MaxiSorp plates coated with protein overnight at 4 °C, blocked with 1% BSA in PBS, ligands diluted in PBS 1 h at RT, detection with anti-IgG Fc or anti-His-Tag antibody and HRP-streptavidin, TMB; the paper does not say for each pair which partner was coated; details: both partners purified
T1 construct: human programmed death ligand 1; HEK293 transient, Ni Sepharose and SEC; also called hPD-L1
T1 sequence (Q9NZQ7 19-290): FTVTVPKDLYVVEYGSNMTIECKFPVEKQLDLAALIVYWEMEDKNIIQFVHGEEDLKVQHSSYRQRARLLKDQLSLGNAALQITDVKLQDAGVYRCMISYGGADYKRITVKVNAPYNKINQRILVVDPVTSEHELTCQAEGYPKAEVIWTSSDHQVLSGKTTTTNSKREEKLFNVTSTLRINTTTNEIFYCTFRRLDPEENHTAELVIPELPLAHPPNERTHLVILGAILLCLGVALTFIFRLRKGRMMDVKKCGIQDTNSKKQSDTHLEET

Does B1 bind?
Result: binds

Does B2 bind?
Result: binds

Does B3 bind?
Result: binds
